# Reference: the DeepSol protein solubility set
# Test: soluble on expression in E. coli; label from the status in PepcDB or PDB records
row,Sequence,soluble on expression in E. coli
1,MGGKKFQAMPQLPSTVLDRVFEQARQQPEAIALRRCDGTSALRYRELVAEVGGLAADLRAQSVSRGSRVLVISDNGPETYLSVLACAKLGAIAVMADGNLPIAAIERFCQITDPAAALVAPGSKMASSAVPEALHSIPVIAVDIAAVTRESEHSLDAASLAGNADQGSEDPLAMIFTSGTTGEPKAVLLANRTFFAVPDILQKEGLNWVTWVVGETTYSPLPATHIGGLWWILTCLMHGGLCVTGGENTTSLLEILTTNAVATTCLVPTLLSKLVSELKSANATVPSLRLVGYGGSRAIAADVRFIEATGVRTAQVYGLSETGCTALCLPTDDGSIVKIEAGAVGRPYPGVDVYLAATDGIGPTAPGAGPSASFGTLWIKSPANMLGYWNNPERTAEVLIDGWVNTGDLLERREDGFFYIKGRSSEMIICGGVNIAPDEVDRIAEGVSGVREAACYEIPDEEFGALVGLAVVASAELDESAARALKHTIAARFRRESEPMARPSTIVIVTDIPRTQSGKVMRASLAAAATADKARVVVRG,soluble
2,MGSDKIHHHHHHMALIEGFRVRNYRALRDITLGRLSAEQQGDPLTPFTVVIGKNGVGKSTLFDAFGFVADCLSKDVESACDDKQRGGFERMRSLGTEESIRFDIYYREAKGERPITYELAINLDSSGRPFVESEVLKQRRKGQKHGRPYPFLRLHHGVGKVWAGEEAVETSSGEEDRAQEDVELTDLRQLGIATLGTLKEHPRIKRFRDFLKGWHLSYFHPDSARSIPSAGAQRHLDVHGENIGNVVQYMEREHKERFKTILDRIAAKIPGVHSIRTTVTQDKRVLLQFNDGAFNDPFYAGQMSDGTLKIFAYLLLMEDPEPPPFICIEEPENGLYHRLLDSLASELRSHATGKKNAPQIFVTTHQPYFVDALSTKEVWILEKGKNGFSTICRASDIDLVRNLVEEGLPLGGLWYGDYLDTK,not soluble
3,GKREPDLTGGFSTYLKYKNITFNALFSFSFGNKMRLNDLYESSGQRLPYPDQNMSSEFVNRWREPGDEDRTIIPVLSDKSLQINDKDVTYRIADNGWDMYNKSDIRVVSGSFLRCRSMSIRYDFKREWLKPVYLKGASVSFDMGNVFVIKDKALKGRDPEQIGFGSRSIPPQRSYSLRFNITL,not soluble
4,MLKIIRAGMYTTVQDGGRHGFRQSGISHCGALDMPALRIANLLVGNDANAPALEITLGQLTVEFETDGWFALTGAGCEARLDDNAVWTGWRLPMKAGQRLTLKRPQHGMRSYLAVAGGIDVPPVMGSCSTDLKVGIGGLEGRLLKDGDRLPIGKSKRDSMEAQGVKQLLWGNRIRALPGPEYHEFDRASQDAFWRSPWQLSSQSNRMGYRLQGQILKRTTDRELLSHGLLPGVVQVPHNGQPIVLMNDAQTTGGYPRIACIIEADMYHLAQIPLGQPIHFVQCSLEEALKARQDQQRYFEQLAWRLHNEN,soluble
5,MGSDKIHHHHHHMNKQEITSKIKEITETGAVCGVDVYVCLKGEEQGFYIEKMISMNSLKDRIRSIALEIINTQYLQDEVVYCDILDVIDNKKAVYVLEQSDEYKPFALLNDDSMDEVFNFDEKDIGNVLGFLFKINLNSKKLFIYQQAYVGSRLQAKNNLRIIQKDNVFEIVDKEMLKIDKRGELLILDNTILVRNVKVLQDFFGFQVFVRNQAQSVISKLEELDIIGNIATLKEYQTGEKLTISKKLMKVKNSPVLAMDKDELINKIPLVPRYKNIIHIENGKIRTNTKKDVDNLMKLLNDDYVKSELTDMEYDSTSKTLLNSESQDE,not soluble
6,MSLEGFIEDASVSLGLRNLYFNRDFRQPGAAQSKQEEWAQGFLLQAKSGYTQGTLGLGVELIGQLGLKLDSSPDRAGSGLLPRHADGRAADDYARLGVAPKLKLSNTELKLGELLPELPILLRNDGRLLPQTFQGGMLTSREIAGLTLHGGQMRSLSQRNSSDHQDLSVDGRGGAFSDRFDYLGAEYRFNAERSQVGLWQARLQDIYRQDYYSLSHKQSFGGWRLGASVGLFDTRDEGAAKLGELENRALTGFFSATRGGHSLGAGYQRMYGDDGMLYIAGTSTPLVNDIQVRNFTSAGERSWQLRYDYDFVALGIPGLTAMARYASGAHARTKAMDDGRAWERDVDVAYVIQSGPLKNLGLRWRNAMLRSNHAADVDENRLILSYSLPLLEGHHHHHH,soluble
7,MAVYANTSVQDFYEFWLEEVKKKSLSYNSYYSFKKTVQNYILPLYGRLSMGKLRKNHVKRIYKKTYETSPSVAKIVKTVLTTSFKYALRYGYVEEDYVTGLKWNRVILEHHHHHH,not soluble
8,MAALVDLVNFQLENAKALSTVLRQETQAITARVSSEIESIAKRKMTLIDQLRTTDQRIASHPHVNQLTEDEHLSQVVAQIQSIVLDCQQVNRVNGESLSRAQLSFNKLNNMLQHTHGKIGMTYNAGGKTHTISTLGTNIKA,not soluble
9,MTETDFKLKYWGNQEQDYILPTVGLGREYLVLGKLLISLSKWRAKGLIDFDVYLRPTGVGTLTNTINYEYYKGLEDKYDLTLYIRAKDSYYPLLWIDITGSSWTEEQSKERYGESIYAILSVKVETAKKYDVLGRVFFIHYNDTEDKLKCISALQILNLERQNKIKKDKFERGAKSEYYLIPTSYWKNLTELRIALRGFYQSFKEYLARSNK,soluble
10,AEFKHVFVCVQDRPPGHPQGSCAQRGSREVFQAFMEKIQTDPQLFMTTVITPTGSMNACMMGPVVVVYPDGVWYGQVKPEDVDEIVEKHLKGGEPVERLVISKGKPPGMF,soluble
11,MESHENPGMFSRLLRLFHRENGDQGETRPRQKEFGILSYEKGRMKSFWGRHVSAGKTSSQSCNITNHMKNMNKLEDMKFYIRKINAEREELFRILDIDMNTDLNYSIRHTHLLKKCNQLKKKVRMLLNENRKLLVEQADQEASFGEEKSSVMRPARTYIPSAKQQQV,not soluble
12,MARTVFCTRLQKEADGLDFQLYPGELGKRIFDNICKEAWAQWQTKQTMLINEKKLNMMDPEHRKLLEQEMVNFLFEGKEVHIEGYTPPAK,not soluble
13,MLPDVQLLKPEVPIGLSRVGATGIKKLVEVQREGKRPIILISTFDVFVDLPAHLKGVNLSRNFEVIDEVLETLTAKPIENIEDLVVEIADHLLKRHEYATKAEARMNSELIMRKRTPKTGQRTQEVVKIFGEATLGRDGSKVIMVGVEVTGITACPCAQELVKASSAERLAKMGFDEETIQKILDAIPVATHNQRGRATLKVQVTDSFKVPIAKLIDVAKSSMSYETYEILKREDELAVVEAAHRNTRFVEDGVRYMAMELLKTFPNAPDDILVFLRQENEESIHQHNVVAERFA,not soluble
14,MSLSGKPITDQQIRLYVNERKQGQTQLAASAKSGLSERSGRRIDSGELNTEPTPKRQWRTRKDPLAEVWSSVLVPMLEANPELLPLTLFEYLHDNYPNQYDNTVLRTLQRRVKAWKVKHGPAKEVMFRQTKVPGRLGLSDFTLLKGVTITILGQVFCHLLYHYRLAFSGWTYAKVICGGESYTALSTGLQNALWRSGGAPLEHRTDSLSAAFNNLAEKEQMTVRYDALCHHYQLKGSRNNPGKSHENGTIEAAHGHLKRRMTQALLLRGDTDFTSLEAYQAFVDGIVTKINQQCRTRFEQERPLLQTLPKRRTHDYAEHSVLISSSSSFDLKRVTYTVPSRFIGERLYVQLYDERLDLFSGHEQIMSLPRVYATTTQRGRSVDYRHVIDSLVKKPGAFRYSQLRDDLLPTPDYHRIWQYVDGTLNPHDACRYIVRLLHLAATAQCQDSLGRYVLKSIEGGELPSNLQCNKRFSTDTAVIPLITAKQHLLADYDQLLCVEVQHGEGHHHHHH,not soluble
15,MGSDKIHHHHHHMNDLKRLPYEPVKGLLPRPAVGTSERVITLPEPDRTSGMPLMGTLWLRKSTREFDQQPLPLKQLSELLWAAAGVNRSLGGGRTAPSPYGETVIDVYVALPAGLYRYDPVHHCLELKRAADLRSMTGYQDFVGMAPLDLVFVANHGRMQEMPPKLRETFSAAAAGAMAENAYLYCASAGLGAVVRGWLNRRQLAEHMSLNEDEEPILSQTIGRAASHVTTTQA,not soluble
16,MGSDKIHHHHHHMKAVVQQWYTHPAVRAALTDLADYRPTLATAIEIQQVPAPTFAERPRSLLVSQRMQALGLHDVEVDDLGNVYGRRPGSTARPGLLISAHLDTVFPADTDLSIRYEGERVYGPGIGDNSAGVAGLLRLAEMYQRFDLPNTSDIWFVANVGEEGLGDLRGMRRVVERLRTRLSTVVVIEGCDFGSLHHQAIGVRRFRIEATGPGGHSWGNFGTPSAIHVLVRLAARLTELQVPSSPRTTFNIGTISGGTSVNTIAQHANMLLDLRSVSSAALTDLVNEVYRLVEEVALEYPDVHIQLTKVGDRPSGAIPREHPLVQAAVAAYQMVGAQISFQQSSTDANIPLSLGMPAVCVGLTDGGNAHRTDEYILPFNLSRGMQALLLLSLAANTLETI,not soluble
17,GSDDINQKVAEQLAQKAQSSSLGYDIVESLTVEVGPRLAGSEQDKVAVDWAIAKLQSLGFDRVYKEPVTVPVWRRGIAKASILSPFPQPLVVTALGGSIATPAQGLSATIVRFDTLQDLQNAEAGSLNDKIAFIDAKTERHRDGKGYGQTASGRSRGAVAAAEKGAVGIIIRSIGTDHDRMAHTGMMRYEEGVTAIPAAAISNPDADLINAMLKRDKEVVISLELGSERRGETTSYNVIAEVKGSTKADEIVLIGAHLDSWDEGTGAIDDGAGVAIVTAAAKHILDLPQKPERTIRVVLYAAEELGLLGGKTYAKEHEAELEKHYIAAESDFGAGPIYQIDWRVADTAHSPVINAMKVAEPLGVAAGNNKASGGPDVSMLPALGVPVASLRQDGSDYFDYHHTPNDTLDKINPEALAQNVAVYAQFAWVMANSKVELRPLPPKE,soluble
18,MIVRGGGDLATGVIQKLWHVGFKILVLETECPLAIRRTVSVCDAIFQKEQRVEDLVAVRITSLKDCAKCWQQNKLPVFVDQTASAIQQLKPLIVIDAILAKKNLGTHRGMAPITIALGPGFSAPQDVDVVIETMRGHRLGRLYFEGTALPNTGIPGEIGGKSAERVVHAPASGQVTHLKNIGDLVLKGEALFLIDQVPVYSPLTGTLRGLISEKVTCYQGLKCADVDPRPVEKVDCLTISDKARALGGAVLEAIFMIGRRKNVL,not soluble
19,MSSSTKTLSQTYGPRPQSFSLDEAGERYYIGSEIGAYLRLHRGTLYKKYPLLWRKVATSDDKDKLKQIAMSNAFLHTNIMLLRAHEVDELLDGSEEKYRAAGAAPSTPRTEGASRTVAKTPATGWAGQQVTSGSHHLESVPCSCPIAHSRGRMKHRELVYSAEDLEMSKRVMKNAEEGEDLVPIRLDMELDGIKLRDTFTFNKNEKMITPEMIAEIMCEDLDLPLAVFQPAITAAINQQLEASTEAPPLDVNICDQRAVLKLNINVGNQSLVDQFEWDMSDPNNSPEEFSRNICKELGLGGEFMSGIAYSIRGQLQWNQRTYAFSESPLATVDCPFRTSSEVESWGPFLETLTDAEIEKKMRDQDRNTRRMRRLVGGGFNY,not soluble
20,GPLGMATEEAIIRIPPYHYIHVLDQNSNVSRVEVGPKTYIRQDNERVLFAPVRMVTVPPRHYCIVANPVSRDAQSSVLFDVTGQVRLRHADQEIRLAQDPFPLYPGELLEKDITPLQVVLPNTALHLKALLDFEDKNGDKVMAGDEWLFEGPGTYIPQKEVEVVEIIQATVIKQNQALRLRARKECFDRDGKERVTGEEWLVRSVGAYLPAVFEEVLDLVDAVILTEKTALHLRARQNFKDLRGVAHRTGEEWLVTVQDTEAHVPDVYEEVLGVVPITTLGPRHYCVILDPMGPDGKNQLGQKRVVKGEKSFFLQPGERLERGIQDVYVLSEQQGLLLKALQPLEEGEGEERVAHQAGDRWLIRGPLEYVPSAKVEVVEERQAIPLD,soluble
21,MAHHHHHHMDEKPRLIEHTSACRGTADVLILSGFPWYVTEGQVRKYLTEIHPSNIAPLTVRLYTNPANGSSRGICFVEYCPKQSNTGGASQGIKNEFPERKQKGEAEDIAALMKLRIEATAYERHYIRVLLYRLTNRNWDRGGRLPDLPTDPPPLATSRGGVLEGYGDEGFTVRCSALLGLANTVTPNGIASMQTLRKRFREEAAKAAMPNKSDEGYPGSSAARQ,not soluble
